Measured values: paper PMC4650670 (Scientific Reports, 2015)

Molecular target: human cytoskeletal actin, filamentous (F-actin; β- and γ-actins) (human, UniProt P60709 1-375; P63261 1-375)
Test: ITC
Conditions: both partners purified

B1: VopV_(rep1) (residues 361-428 of the type III secretion effector VopV) (domain or fragment)
chain: WPEVKPAHRLITTSGNAKIDGNPGYRNARVDVDGQTVGYTRNERGGSQPQSSGVHTLQGSQQPSVEPS
- Kd: 54.4 nM
